{"source": "IntAct's records for PubMed 17962809", "parents": {"B1": {"name": "Serine/threonine-protein kinase D2 (Homo sapiens), Q9BZL6 (parent)", "chain": "MATAPSYPAGLPGSPGPGSPPPPGGLELQSPPPLLPQIPAPGSGVSFHIQIGLTREFVLLPAASELAHVKQLACSIVDQKFPECGFYGLYDKILLFKHDPTSANLLQLVRSSGDIQEGDLVEVVLSASATFEDFQIRPHALTVHSYRAPAFCDHCGEMLFGLVRQGLKCDGCGLNYHKRCAFSIPNNCSGARKRRLSSTSLASGHSVRLGTSESLPCTAEELSRSTTELLPRRPPSSSSSSSASSYTGRPIELDKMLLSKVKVPHTFLIHSYTRPTVCQACKKLLKGLFRQGLQCKDCKFNCHKRCATRVPNDCLGEALINGDVPMEEATDFSEADKSALMDESEDSGVIPGSHSENALHASEEEEGEGGKAQSSLGYIPLMRVVQSVRHTTRKSSTTLREGWVVHYSNKDTLRKRHYWRLDCKCITLFQNNTTNRYYKEIPLSEILTVESAQNFSLVPPGTNPHCFEIVTANATYFVGEMPGGTPGGPSGQGAEAARGWETAIRQALMPVILQDAPSAPGHAPHRQASLSISVSNSQIQENVDIATVYQIFPDEVLGSGQFGVVYGGKHRKTGRDVAVKVIDKLRFPTKQESQLRNEVAILQSLRHPGIVNLECMFETPEKVFVVMEKLHGDMLEMILSSEKGRLPERLTKFLITQILVALRHLHFKNIVHCDLKPENVLLASADPFPQVKLCDFGFARIIGEKSFRRSVVGTPAYLAPEVLLNQGYNRSLDMWSVGVIMYVSLSGTFPFNEDEDINDQIQNAAFMYPASPWSHISAGAIDLINNLLQVKMRKRYSVDKSLSHPWLQEYQTWLDLRELEGKMGERYITHESDDARWEQFAAEHPLPGSGLPTDRDLGGACPPQDHDMQGLAERISVL", "partner": "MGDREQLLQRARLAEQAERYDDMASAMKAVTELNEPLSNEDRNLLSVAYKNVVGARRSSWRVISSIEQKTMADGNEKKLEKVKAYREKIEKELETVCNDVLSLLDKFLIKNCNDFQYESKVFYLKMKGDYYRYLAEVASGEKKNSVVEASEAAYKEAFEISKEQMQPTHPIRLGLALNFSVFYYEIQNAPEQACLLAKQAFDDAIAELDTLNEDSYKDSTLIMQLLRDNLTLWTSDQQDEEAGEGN"}}, "data": [{"variants_of": "B1", "details": "with 1433f_human YWHAH", "values": [{"variant": "S244E;S706E;S710E", "effect of a mutation on the interaction": "disrupting interaction"}]}]}
